{"source": "patent US20140199709A1", "target": "human mast cell β-tryptase (human) (UniProt Q15661)", "sequence (Q15661 31-275 limits assumed)": "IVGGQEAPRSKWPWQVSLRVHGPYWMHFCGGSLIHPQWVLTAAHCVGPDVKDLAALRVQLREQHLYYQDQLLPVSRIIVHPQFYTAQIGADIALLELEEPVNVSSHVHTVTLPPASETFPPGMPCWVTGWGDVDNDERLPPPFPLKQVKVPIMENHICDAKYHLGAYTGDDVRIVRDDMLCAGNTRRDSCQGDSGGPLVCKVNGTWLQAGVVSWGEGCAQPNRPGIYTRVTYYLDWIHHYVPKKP", "experiment": "sandwich ELISA, luminescence (CSPD): rabbit anti-human tryptase coated as capture, human tryptase titrated, AP-labeled G3 as detection; EC50 is of the tryptase concentration", "data": [{"substance": "anti-tryptase antibody G3 (sc-33676; Santa Cruz Biotechnology, Inc.), alkaline phosphatase conjugated", "values": [{"measurement": "EC50", "value": 0.065, "unit": "µg/mL"}]}]}
